Data: the supplement of paper PMC10724198
± gives the standard deviation of the averaged measurements.

test system: Saccharomyces cerevisiae; experiment: protein stability index of tFT-peptide fusion (C-terminal peptide) (PSI (0-1 scale)); higher = more stable (slower turnover); settings: genetic background: wild type; temperature: 30 C
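Further: PSI is a weighted mean of sequencing reads over stability bins, variants kept only with over 10 reads, mCherry proximal and sfGFP distal, peptide attached via GGGS linker.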

| Sequence | protein stability index |
| --- | --- |
| RRLPPSRSAPFP | 0.698 ± 0.028 |
| RRLQGKWIWQNH | 0.731 ± 0.055 |
| RRMIKNVRRHKV | 0.661 ± 0.075 |
| RRPPALDSLRHY | 0.661 ± 0.011 |
| RRRENAKENEIK | 0.812 ± 0.13 |
| RRRGEGRREKDR | 0.677 ± 0.12 |
| RRRREKEKRSQE | 0.734 ± 0.14 |
| RRRSAFRLIKEK | 0.677 ± 0.045 |
| RRTEGKECEGEE | 0.707 ± 0.064 |
| RRTRRATKAKKR | 0.682 ± 0.058 |
| RRTTTDSPRADR | 0.708 ± 0.047 |
| RRVMGRLKNQIK | 0.6672 ± 0.0065 |
| RRWIFGEGMSTY | 0.723 ± 0.058 |
| RRWWDHGCSGAG | 0.672 ± 0.061 |
| RRYLREEDVQEK | 0.696 ± 0.049 |
| RSAPPPPPLRLD | 0.789 ± 0.062 |
| RSARGRRGWALG | 0.712 ± 0.022 |
| RSCGCNGPGRSP | 0.749 ± 0.08 |
| RSCPILLLSFPL | 0.62297 ± 0.00052 |
| RSFPLRLLSLFV | 0.585 ± 0.019 |
| RSGGYPGLLLFN | 0.6227 ± 0.0053 |
| RSGRGRRGVGWV | 0.655 ± 0.038 |
| RSGSRNYPGFPR | 0.764 ± 0.027 |

| Sequence | protein stability index |
| --- | --- |
| RSIFLSRFVIGC | 0.682 ± 0.018 |
| RSINTETPSKNE | 0.613 ± 0.056 |
| RSIYEFVPIRYV | 0.594 ± 0.028 |
| RSPGSVSVGGVV | 0.615 ± 0.021 |
| RSPHGLRSRIQR | 0.72 ± 0.037 |
| RSPLPFPGASVP | 0.747 ± 0.039 |
| RSPRLRSRVRVP | 0.639 ± 0.083 |
| RSPSTRHVGLSW | 0.6696 ± 0.00085 |
| RSRHRRQDGKKT | 0.64 ± 0.029 |
| RSRPPPPLLPSV | 0.8206 ± 0.0072 |
| RSSECNQLYTHK | 0.682 ± 0.065 |
| RSTPALRPVDLE | 0.707 ± 0.049 |
| RSTSPCPPTVSP | 0.641 ± 0.091 |
| RSTTDNADRILY | 0.7299 ± 0.0022 |
| RSVVLPSFLSPH | 0.699 ± 0.017 |
| RTDRIVGGNERV | 0.661 ± 0.0072 |
| RTFVSLLTSSSH | 0.83 ± 0.17 |
| RTGLLLLVQDFR | 0.703 ± 0.018 |
| RTGSCSCQRKPE | 0.663 ± 0.017 |
| RTHLVRRHGEAR | 0.697 ± 0.02 |
| RTKETTTRQKKK | 0.708 ± 0.052 |
| RTKNMRRIKEKG | 0.688 ± 0.046 |
| RTKVSENLNEKK | 0.681 ± 0.032 |

| Sequence | protein stability index |
| --- | --- |
| RTLYAGVVGGNG | 0.734 ± 0.086 |
| RTPLPPPRPSTY | 0.719 ± 0.049 |
| RTPSHPLPHPHS | 0.677 ± 0.12 |
| RTSGRIASLPGP | 0.617 ± 0.031 |
| RTSPRMAPLRTH | 0.713 ± 0.067 |
| RTTAPPIPLPSP | 0.729 ± 0.042 |
| RTTKRKIKIIGI | 0.709 ± 0.013 |
| RVCSGYSRLRFA | 0.561 ± 0.085 |
| RVDTRKQNKNSM | 0.693 ± 0.019 |
| RVEITGVAVTRC | 0.642 ± 0.0082 |
| RVFVRFGSCAGG | 0.679 ± 0.059 |
| RVGGRVSGGGGL | 0.654 ± 0.027 |
| RVPNSYELRCFR | 0.544 ± 0.038 |
| RVPPPTSPPSPP | 0.694 ± 0.012 |
| RVSEPRRPPLGR | 0.65 ± 0.024 |
| RVSGILQHFTSA | 0.7309 ± 0.0058 |
| RVSWGRTGTLRN | 0.681 ± 0.018 |
| RVTMLPSSQRGI | 0.651 ± 0.033 |
| RVTPGLSIFFWP | 0.729 ± 0.0094 |
| RVVCFPAPLMPR | 0.705 ± 0.05 |
| RVVDEPRDFQVR | 0.6888 ± 0.0043 |
| RVVPSVSVWLPP | 0.663 ± 0.052 |
| RWKLRLFLLVPT | 0.602 ± 0.044 |

| Sequence | protein stability index |
| --- | --- |
| RWLGWRAGGAAG | 0.662 ± 0.071 |
| RWPSVGFTAHNV | 0.571 |
| RWSPLLPPQVSL | 0.683 ± 0.019 |
| RYASSRTLFAAV | 0.672 ± 0.069 |
| RYGLSLLQASRR | 0.679 ± 0.081 |
| RYLQAGDYTKVY | 0.695 ± 0.1 |
| RYPSAPPKISAS | 0.613 ± 0.0083 |
| RYQMVTGPPQRH | 0.6921 ± 0.004 |
| RYVVTVQGSGGE | 0.688 ± 0.045 |
| SAAVDSPIFPSS | 0.6916 ± 0.00075 |
| SAELGHTNLCRS | 0.6781 ± 0.0041 |
| SAFSSSLTALPP | 0.653 ± 0.022 |
| SAGGARSLQMFC | 0.66 ± 0.027 |
| SAGHHACRRYAG | 0.683 ± 0.037 |
| SAGVTGREVFVG | 0.631 ± 0.015 |
| SALNKPLTTESG | 0.6586 ± 0.0021 |
| SAPQPPFPFPPS | 0.696 ± 0.0093 |
| SAPRFPARFYPL | 0.66705 ± 0.0003 |
| SAPRRPPLIFPG | 0.672 ± 0.11 |
| SARPDLAERHRP | 0.673 ± 0.013 |
| SASAILPWAIKL | 0.639 ± 0.075 |
| SASLPSPPFPSP | 0.649 ± 0.054 |
| SASSLPVVAARA | 0.544 ± 0.021 |

| Sequence | protein stability index |
| --- | --- |
| SASVLVLRRSSP | 0.732 ± 0.074 |
| SCARARFAPHHS | 0.734 ± 0.0092 |
| SCCSLCKAVRNL | 0.718 ± 0.054 |
| SCFVAWAFCGWY | 0.554 ± 0.0084 |
| SCFVWAFRCWGF | 0.621 ± 0.043 |
| SCGWWWGGGAGG | 0.656 ± 0.041 |
| SCHEARWEVVMW | 0.771 ± 0.17 |
| SCHGGWFLHVFT | 0.645 ± 0.018 |
| SCKARPLVAASD | 0.66 ± 0.044 |
| SCLPPSRPSSAL | 0.629 ± 0.019 |
| SCLSGALPPFLA | 0.668 ± 0.042 |
| SCLSLALYASHF | 0.56 ± 0.033 |
| SCLYPGLCLSYF | 0.674 ± 0.0069 |
| SCMSVRKSSPRS | 0.691 ± 0.044 |
| SCPAPAALPLPR | 0.674 ± 0.026 |
| SCPPVLFFPFPW | 0.705 ± 0.051 |
| SCRLALPPSFLS | 0.706 ± 0.024 |
| SCYGPRAPFHSP | 0.581 ± 0.074 |
| SCYHGDYCTVAW | 0.7062 ± 0.0017 |
| SDEIKTLGLRKK | 0.683 ± 0.025 |
| SDPLRLPNTCQH | 0.669 ± 0.009 |
| SDSAPPPAALPH | 0.7263 ± 0.0029 |
| SDSSRRVFDVRR | 0.705 ± 0.046 |

| Sequence | protein stability index |
| --- | --- |
| SDTHYLAGELCT | 0.596 ± 0.034 |
| SDVAWVEAPPRS | 0.678 ± 0.097 |
| SECLCVRDRCGG | 0.685 ± 0.078 |
| SELVARGGGGGW | 0.728 ± 0.07 |
| SESVGLCLGVTW | 0.767 ± 0.05 |
| SEVFAVGITGVI | 0.6788 ± 0.0039 |
| SFAPPLRCPPSS | 0.709 ± 0.02 |
| SFDPCLCTLSLL | 0.6961 ± 0.0049 |
| SFDPPYALLPPP | 0.685 ± 0.02 |
| SFIFTLRRSRPR | 0.667 ± 0.012 |
| SFLGYAVFPYKG | 0.6808 ± 0.0041 |
| SFLVPLTAHISP | 0.673 ± 0.083 |
| SFPLPSLSSPSS | 0.61 ± 0.075 |
| SFPPFSPLYSPP | 0.717 ± 0.067 |
| SFPPPLPPPLHP | 0.721 ± 0.06 |
| SFQCTCLSPCTG | 0.652 ± 0.07 |
| SFRPPSTPRRRT | 0.695 ± 0.03 |
| SFRYVGLTRVFG | 0.592 ± 0.032 |
| SFSCYFPLGFFG | 0.7416 ± 0.001 |
| SFSLSMFVTYSF | 0.505 ± 0.03 |
| SFSLVATESPVT | 0.709 ± 0.052 |
| SFSRLYGCVPRD | 0.678 ± 0.0098 |
| SFSSAVIPPFAP | 0.728 ± 0.053 |

| Sequence | protein stability index |
| --- | --- |
| SFTLPPPLLSRT | 0.747 ± 0.008 |
| SFVDDILVRPIA | 0.715 ± 0.05 |
| SFVGGKLRTEYS | 0.71 ± 0.068 |
| SFVSDYIILIVL | 0.497 ± 0.081 |
| SFWNLFAGWYVI | 0.685 ± 0.03 |
| SGAGVGGQVAVG | 0.717 ± 0.061 |
| SGDVGVGHWVGG | 0.692 ± 0.022 |
| SGEKKPTKGTRT | 0.57 ± 0.055 |
| SGEVSYVYVGNK | 0.6553 ± 0.0011 |
| SGFLLSPPRPSF | 0.693 ± 0.042 |
| SGGAEGVRAGAA | 0.715 ± 0.081 |
| SGGQDSFVLRLG | 0.6687 ± 0.0015 |
| SGGRGAILVSVV | 0.647 ± 0.078 |
| SGGVKGKKKGEK | 0.702 ± 0.043 |
| SGHGFFMCLFRC | 0.552 ± 0.028 |
| SGIEAGAELGVG | 0.567 ± 0.011 |
| SGIEHVLIVYDT | 0.679 ± 0.11 |
| SGIRGWNLGEMW | 0.7152 ± 0.0068 |
| SGKIDKGAIAIS | 0.663 ± 0.049 |
| SGLPLLSSYATR | 0.72 ± 0.048 |
| SGLQPADMVFFR | 0.749 ± 0.056 |
| SGPSIPCFLYSS | 0.698 ± 0.013 |
